In the DeepSol protein solubility set:

Experiment: soluble on expression in E. coli; label from the status in PepcDB or PDB records

Sequence | soluble on expression in E. coli
CHETTTVALPESIGVGKGTTTLEDFENADAIFIIGQNPGSNSPRMMSELHAAAKRGASIISFNPLREKALVRFASPQDPRDMLSLHGVEISSQYHQVRIGGDMIALQGVCKAVIEADDVARREHLPRVLDVAFIEEHTHGFEQYADYCRQLPWDLIESHSGLTRQAIEDVAAVYRRSERVICCWGMGVTQHKRGGDAVQQIINLLLLRGNIGKLGAGACPVRGHSNVQGDRTMGIYEKAGEPFLASMSKVFGFEA | not soluble
MITMLERVPTGIPGFDELCSGGLLRDRSYLVSGPSGSGKTIFAMQYLVNGIEKYNEPGVFVATEERPQHLREHFLTFGWDLEKYEDENMLAIVDATSTKIGLPSDERYIDVRPFDTRSLLDQIITIQDEIGARRAVVDSTTSIGFTISDPAKFRVELLKISTTMEILGLTSILTCEVVEGGGDKISRFGVENFVVEGTIVLYYTRIENTRVRSIEIFKMRGTNHSSKIHPFEITENGIVVYSKEEVFA | not soluble
MGSDKIHHHHHHMKTSKKWIAHFEANALHQRINWDLFPAITEAETASVLSSLQAWQLGETSDGAHLIHASTLYASHIGDLDYIDAVKLFIKEEQKHGNNLGRYLDVIDKPRIKKDWGDSLFRKIRYFNTNMEIWTLAVITVESAAQVFYQCLKNATECTLLRQICTDILIDEAYHIDFQTERMTILFNKKSVLSRCLSRIMYPVFFFSTSLLVWSAHKKLFKAGGIDFKKYMNKMKYKYFKTLHRIALVCSRKSTLIHSALH | not soluble
MAGEHIKVIYFDGRGRAESIRMTLVAAGVDYEDERISFQDWPKIKPTIPGGRLPAVKVTDDHGHVKWMLESLAIARYMAKKHHMMGETDEEYYSVEKLIGQAEDVEHEYHKTLMKPQEEKEKITKEILNGKVPVLFNMICESLKGSTGKLAVGDKVTLADLVLIAVIDHVTDLDKGFLTGKYPEIHKHRENLLASSPRLAKYLSNRPATPF | soluble
MAHHHHHHMEWVELHDVDPETMSLELPPDMLFGPLEFPKQMRFLLAALRADNELADGYLARVIIDRMDLSLDPPILSEGDFLAAGGKELLDFSVEDFTGTKSRAQRKHIFFQPDQFLQFINIIAAYPTLTEYFVNEKDGVELVFQAYRHSKNPYACVMAMRSLTLFSFTQAVDGTVERRILQSNGVKTIVDAYKQSTGDPTETRFPTLLLSSIMRHYPKEGGKEFIDADGVEAVVNNLNIARYKGIPQHIRVLHDAQRLPKQSIGKKSVDARLEEADFLGVAMGLLDTFPEFYEATGDLLKLLTRVVPAHADPLELLEYRAMPILSKYYVRWREDQSFQTDGTRTLVAKLFELMLNDKTCQRCYDPSVASYELLECLRTAKLAVKDEQEKRVMRFPDPQRQPASAAA | soluble
MGSDKIHHHHHHMNDKEFGQRVRQLRESASMTREQFCDDELELSVRQLTRIEAGASKPTFSKIQYIATRLGMGLYELMPDYVSLPERYSKLKFDVLRTPTYGNEDLAEKRDAMMTEIYDDYYDELPEEEKIVVDTLCSLFDVLDTDSQEYGKEILDDYLHQSYHRSKLSINDLMILRLFIEHCQLEDLSVGTSNYALFTDLIEKLPQSIYDVHSESLFIVRDLFLAIVRILFSKELYNHIPVYIEKIENIMELSQDFQKKPILNLVKWKYELKVQHNHEIAERYYNEAITFASLLNQFHLKEKLQMEWEKDTQSLKR | not soluble
MSVVIERIPKEAIPKSLLLLADPSERQIATYVQRGLTYVAKQGGSVIGVYVLLETRPKTMEIMNIAVAEHLQGKGIGKKLLRHAVETAKGYGMSKLEVGTGNSSVSQLALYQKCGFRIFSIDFDYFSKHYEEEIIENGIVCRDMIRLAMELNKNV | soluble
MGSDKIHHHHHHMAPNYMTEKWREDEEYLSYVEDLLATEEVQKLAEYTQHMHSTRLEHSISVSYHSYKLAKRWNGNARATARAGLLHDLFYYDWRTTKFDEGSHAYVHPRIAAKNAEKITELSDLERDIIIKHMWGATIAPPKYKESYIVTFVDKYCAVKEAALPMTTAMKTKWRQYFGQQSI | not soluble
SARKKIREYDSKRLLKEHLKRLANIDLQIRSAQVTESTDFTELTNQESWLSSTKLVVKPDMLFGKRGKSGLVALKLDLAEVADFVKARLGTEVEMEGCKAPITTFIVEPFVPHDQEYYLSIVSDRLGCTISFSECGGIEIEENWDKVKTIFLPAEKSMTLEVCAPLIATLPLEVRAKIGNFIMGAFAVFQDLDFSFMEMNPFTLVDGEPFPLDMRGELDDTAAFKNFNKWGDIEFPLPFGRVLSSTENFIHGLDEKTSASLKFTVLNPKGRIWTMVAGGGASVIYADTVGDLGYASELGNYAEYSGAPNEEEVLQYARVVIDCATTDPDGRKRALLIGGGIANFTDVAATFNGIIRALREKETRLKASRMHIYVRRGGPNYQTGLARMRALGEELGVPLEVYGPEATMTGICKRAIDCIMLPDA | not soluble
SMDTNADIYDQTASTFFPNGEAMWKKMVEDLKKAEKFIFLEYYIIEEGLMWNRILDILEQKVAQGVEVKMLYDDIGCMATLTGDYAHRLRQLGIEAHKFNKVIPRLTVAYNNRDHRKILIVDGQIAYTGGVNLADEYINHVERFGYWKDSGIRLDGLAVKALTRLFLTTWYINRGEISDFDQYH | not soluble
MMSESNKQQAVNKLTEIVANFTAMISTRMPDDVVDKLKQLKDAETSSMGKIIYHTMFDNMQKAIDLNRPACQDTGEIMFFVKVGSRFPLLGELQSILKQAVEEATIKAPLRHNAVEIFDEVNTGKNTGSGVPWVTWDIVPDGDDAEIEVYMAGGGCTLPGRSKVLMPSEGYEGVVKFVFENISTLAVNACPPVLVGVGIATSVETAAVLSRKAILRPIGSRHPNPKAAELELRLEEGLNRLGIGPQGLTGNSSVMGVHIESAARHPSTIGVAVSTGCWAHRRGTLLVHADLTFENLSHTRSAL | not soluble
MGSDKIHHHHHHMMAPNQFSSGDVIADRRADYARMLAESGDYPAAAELMEQALELAPRWTAGWFRFGEYHEKAGETAKAVAAYEKVAELDAEGLFAAELKLAVLGAAETPEQPPSRYVEGLFDDYADRFETSLVEKLDYSVPQKLAELIGKAATGDAFDTIVDIGCGTGLLGIEIRSLAKRLEGFDISQNMLAKADEKSLYDHLGQADLSLDAEASGLFTPVLTQHRADLVAAADVMMYLGSLETVMPLVSALLKPSGFFAFSVEDAGDEQGFVLRESLRYAHSKSYVIDLLERSGFSPMEIRKTTIRKDAGKPLSGILFLARAKA | not soluble
MGSDKIHHHHHHMKVFVIGAGLMGRGIAIAIASKHEVVLQDVSEKALEAAREQIPEELLSKIEFTTTLEKVKDCDIVMEAVFEDLNTKVEVLREVERLTNAPLCSNTSVISVDDIAERLDSPSRFLGVHWMNPPHVMPLVEIVISRFTDSKTVAFVEGFLRELGKEVVVCKGQSLVNRFNAAVLSEASRMIEEGVRAEDVDRVWKHHLGLLYTLFGPLGNLDYIGLDVAYYASLYLYKRFGDEKFKPPEWLQEKIKKGEVGVKAGKGIYEYGPKAYEERVERLKKLLRFLGLE | soluble
MQLALVLSELGEYQVSNQWLLKIIHDLDETMYDCLYFLANNYACLGLFREATQYAEQYLTCESDGEFADDAADLLELLKLDRHDVSEEQEQLITMQERARHLLEQERFAEAIEALEAIVSRYPEFWSAHNNLALAYFYNGDVERAKQKLLEVLKRDPGNLHALCNALVFAYYLHDQEEVAALCETLASVYPFFREHQYKLGATFALVGRFDSAFRWLYRLYKNGFDGDGPFYYWLAYSAYHIGHESLARQVWETLTTLHPEKRGELEHHHHHH | not soluble
MQRFLDSISAATQAKSPAEHETLVAMADLYAIITCVEYLERAWRANAVSDEDYTRNCSRLIAQFRATRQLVMDDVPSVISFLEEYHLAARAAMNRLQVGVPATVEHANSSDETRRRNFTAAAIQATEAFLTFRDALELGERSVDRLLPYLREILLVLGRMGAVFGTADGDATVQRERIVQWVRRLDAMHAYEQITEEDKRQLAHDVDTLYDTFRRRVGELEM | not soluble
VLTELVDLPGGSFRMGSTRFYPEEAPIHTVTVRAFAVERHPVTNAQFAEFVSATGYVTVAEQPLDPGLYPGVDAADLCPGAMVFCPTAGPVDLRDWRQWWDWVPGACWRHPFGRDSDIADRAGHPVVQVAYPDAVAYARWAGRRLPTEAEWEYAARGGTTATYAWGDQEKPGGMLMANTWQGRFPYRNDGALGWVGTSPVGRFPANGFGLLDMIGNVWEWTTTEFYPHHRIDPPSTACCAPVKLATAADPTISQTLKGGSHLCAPEYCHRYRPAARSPQSQDTATTHIGFRCVADPVSG | soluble
MSLQHMYRCARVQGLDTSEGLLLFGKEHFYVIDGFTMTATREIRDIETLPPNMHEPIIPRGARQGPSQLKRTCSIFAYEDIKEVHKRRYLLQPIAVEVFSGDGRNYLLAFQKGIRNKVYQRFLAVVPSLTDSSESVSGQRPNTSVEQGSGLLSTLVGEKSVTQRWERGEISNFQYLMHLNTLAGRSYNDLMQYPVFPWILSDYDSEEVDLTNPKTFRNLAKPMGAQTDERLAQYKKRYKDWEDPNGETPAYHYGTHYSSAMIVASYLVRMEPFTQIFLRLQGGHFDLADRMFHSVREAWYSASKHNMADVKELIPEFFYLPEFLFNSNNFDLGCKQNGTKLGDVILPPWAKGDPREFIRVHREALECDYVSAHLHEWIDLIFGYKQQGPAAVEAVNVFHHLFYEGQVDIYNINDPLKETATIGFINNFGQIPKQLFKKPHPPKRVRSRLNGDNIGISVPPGATSDKIFFHHLDNLRPSLTPVKELKEPVGQIVCTDKGILAVEQNKVLIPPAWNKTFAWGYADLSCRLGTYESDKAVTVYECLSEWGQILCAVCPNPKLVITGGTSTVVCVWEMGTSKEKAKPLTLKQALLGHTDTVTCATASLAYHIIVSGSRDRTCIIWDLNKLSFLTQLRGHRAPVSALCINELTGDIVSCAGTYIHVWSINGNPIVSVNTFTGRSQQIVCCCMSEMNEWDTQNVIVTGHSDGVVRFWRMEFLQVPETPAPEPVEDLEMQEGCPEAQIGQQAQDDDSSDSETEEPSVSQDPKDTSSQPSSTSHRPRAASCRATATWCTDSGSDDSRRWSDQLSLDEKDGFIFVNYSEGQTRAHLQGPLAHPHPNPIEARSYSRLKPGYRWERQLVFRSKLTMHTAFDRKDNTHPAEVTALGVSKDHSRILVGDSRGRVFSWSVSDQEGHHHHHH | not soluble
MGSDKIHHHHHHMPASKIYLLDYGWLGGDIGWFLPGQLGGAMTNSERNPRRDWVEIPITGALIDHPDARILFDTGIAPDAMKTHERGLMEAFPITKMDDQNHIENQLKLIGLKPEDIDFVVISHLHLDHIGQAAVFKDSHVPIIVQKKELESALSLIWQGKSGAYDYSDLLPLKGAAWMPLDDPVFEIVDGVYAEFTGGHTAGHQVLTVKTEKGSMYTLTGDFLHLPKEYDVEAKGWLLSNATEWNSYIKKMKIREKARKQKLIISHDPGIWDKYPHAPKFVE | not soluble
MATPDLTIRGGGIFGLAVAWAAVRRGAKVRLIESARIGAGSSGGVVGALSPHVPEQWNEKKAFQFESLAMGEAWWAAVADASGLPTGYDRLGRFQPLADARAVDHARARAEEARTLWQGRFSWEVVPAGGDFMPESPTGLVIHDTLTARLNPRLAVPALVQAIRAQGGEILIGEGEEAGPVVWATGVAGLEALSQDLGKPVGNGVKGQAMVVALDARDRPQVFGPGLLIVPHADGTTAVGSTAEKDWTAPDTTDAQLDEVHARAVALCPWLEGAPVLTRWAGLRPRARSLAPMLGEWPGRPGQYVANGGFKIGFGMAPKVGEVMAALVLEGRDEIPESFRVEASLKKKGKAEELEHHHHHH | not soluble
MKIYVSRSRLKSNRRRLINETDVERLFSRNGFQIIHPQELTIKEQINLFRHAQVIAGPLGSAMYNCVFQTKPTKKLLLTYEKFIKMSDLLINTSTNGLLYYFAGTEHKQNKSPSNTEWLEHHHHHH | soluble
